Literature values as cited in publication PMC2656815.

Target: CRF1 receptor N-domain (Homo sapiens) (UniProt P34998)
UniProt P34998, sequence (P34998 24-119): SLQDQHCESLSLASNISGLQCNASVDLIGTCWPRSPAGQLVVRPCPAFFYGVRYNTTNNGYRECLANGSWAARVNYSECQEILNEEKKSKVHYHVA

- Kd: 0.05 µM
Substance: CRF (from UniProt P06850)
